From PMC4865677, “Dataset of gene cloning and gel filtration chromatography of R-est6” (Data in Brief, 2016)

Target: the molecule itself
Experiment: SEC; Ni-NTA affinity purified R-est6 loaded on a Superdex 75 column calibrated with known molecular weight markers; protein in peak 1 and peak 2 confirmed as R-est6 on SDS-PAGE

B1: R-est6, family 6 carboxylesterase from Methylococcus capsulatus (bath) (enzyme, Methylococcus capsulatus (bath strain), UniProt Q60CN0 1-336, looked up)
chain: MSTFDRGFARLLLEICRYTYAKAFALAPEEGDALQWIEQQGGKPDPASLEPIRGGDTSVACVFRYPDKNVVAYMGTKTEFDNAVNAKDSIEDWLNNFRAAPVPFKLGKEHLGLDKEVELPGRVHAGFLSELKAVQAKVIDVLSKNGGKDKPLYLTGHSQGGAEATLATVALLAGGFKVAATYTFAAPRAGDRTFADAVPAEFPFHRIEFGDDIVPHVPPTLLSRWVKTLVTVPRHLPLKRFGVPVKVNEFLELSVHDLGYVGVGRLCYGNHESGQLHVDMSVRQEASLFLGRLTRLLRHPEHWAEHHHLAGTRAEVSAGKKGNYTALVSDFPIVEG
notes: also called MCA0075
binding result: binds
